From article PMC11039987
Read-outs that look alike come from different tables or passages of the source.

How the values were obtained:
Assay in all cases: fluorescence anisotropy
RecBCD [1] = target: T1, RecBCD (prokaryote (species  in the …, UniProt P08394;P07648;P04993 1-1180;1-1122;1-608))
RecBCD [2] = target: T1, RecBCD; remark: listed apart in the source
RecBCD [3] = target: T1, RecBCD; remark: listed apart in the source

T1 sequence (P08394 whole entry, chain 1 of 3): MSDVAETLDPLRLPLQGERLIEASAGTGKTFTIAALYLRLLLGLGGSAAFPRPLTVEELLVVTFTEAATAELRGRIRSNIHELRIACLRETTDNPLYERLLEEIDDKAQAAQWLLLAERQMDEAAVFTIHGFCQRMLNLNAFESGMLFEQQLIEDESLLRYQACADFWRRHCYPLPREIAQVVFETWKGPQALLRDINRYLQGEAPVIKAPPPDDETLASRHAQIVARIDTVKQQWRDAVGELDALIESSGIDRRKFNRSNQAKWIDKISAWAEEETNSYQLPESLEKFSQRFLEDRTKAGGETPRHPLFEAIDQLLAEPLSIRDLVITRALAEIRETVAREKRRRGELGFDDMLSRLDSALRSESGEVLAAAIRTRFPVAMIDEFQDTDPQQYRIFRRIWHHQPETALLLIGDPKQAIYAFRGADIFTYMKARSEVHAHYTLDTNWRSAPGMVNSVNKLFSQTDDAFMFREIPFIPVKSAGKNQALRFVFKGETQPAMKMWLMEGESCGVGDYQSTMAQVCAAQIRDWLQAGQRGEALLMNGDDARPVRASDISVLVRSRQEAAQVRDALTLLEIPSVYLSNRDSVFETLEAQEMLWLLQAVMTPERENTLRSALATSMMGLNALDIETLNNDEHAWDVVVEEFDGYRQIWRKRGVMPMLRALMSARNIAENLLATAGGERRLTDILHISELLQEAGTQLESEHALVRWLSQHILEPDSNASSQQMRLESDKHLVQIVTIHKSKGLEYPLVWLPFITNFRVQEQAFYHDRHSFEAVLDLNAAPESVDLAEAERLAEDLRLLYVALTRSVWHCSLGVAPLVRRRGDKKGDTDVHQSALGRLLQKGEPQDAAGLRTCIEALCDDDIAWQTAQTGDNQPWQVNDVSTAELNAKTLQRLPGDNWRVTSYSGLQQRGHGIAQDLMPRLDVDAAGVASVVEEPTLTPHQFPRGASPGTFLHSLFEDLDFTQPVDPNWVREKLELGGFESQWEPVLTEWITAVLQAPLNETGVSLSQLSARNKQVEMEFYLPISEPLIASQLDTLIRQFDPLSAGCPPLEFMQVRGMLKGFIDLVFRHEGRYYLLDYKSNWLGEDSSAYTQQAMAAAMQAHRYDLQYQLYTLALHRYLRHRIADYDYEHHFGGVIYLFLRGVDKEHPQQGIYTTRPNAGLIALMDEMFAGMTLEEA
T1 sequence (P07648 whole entry, chain 2 of 3): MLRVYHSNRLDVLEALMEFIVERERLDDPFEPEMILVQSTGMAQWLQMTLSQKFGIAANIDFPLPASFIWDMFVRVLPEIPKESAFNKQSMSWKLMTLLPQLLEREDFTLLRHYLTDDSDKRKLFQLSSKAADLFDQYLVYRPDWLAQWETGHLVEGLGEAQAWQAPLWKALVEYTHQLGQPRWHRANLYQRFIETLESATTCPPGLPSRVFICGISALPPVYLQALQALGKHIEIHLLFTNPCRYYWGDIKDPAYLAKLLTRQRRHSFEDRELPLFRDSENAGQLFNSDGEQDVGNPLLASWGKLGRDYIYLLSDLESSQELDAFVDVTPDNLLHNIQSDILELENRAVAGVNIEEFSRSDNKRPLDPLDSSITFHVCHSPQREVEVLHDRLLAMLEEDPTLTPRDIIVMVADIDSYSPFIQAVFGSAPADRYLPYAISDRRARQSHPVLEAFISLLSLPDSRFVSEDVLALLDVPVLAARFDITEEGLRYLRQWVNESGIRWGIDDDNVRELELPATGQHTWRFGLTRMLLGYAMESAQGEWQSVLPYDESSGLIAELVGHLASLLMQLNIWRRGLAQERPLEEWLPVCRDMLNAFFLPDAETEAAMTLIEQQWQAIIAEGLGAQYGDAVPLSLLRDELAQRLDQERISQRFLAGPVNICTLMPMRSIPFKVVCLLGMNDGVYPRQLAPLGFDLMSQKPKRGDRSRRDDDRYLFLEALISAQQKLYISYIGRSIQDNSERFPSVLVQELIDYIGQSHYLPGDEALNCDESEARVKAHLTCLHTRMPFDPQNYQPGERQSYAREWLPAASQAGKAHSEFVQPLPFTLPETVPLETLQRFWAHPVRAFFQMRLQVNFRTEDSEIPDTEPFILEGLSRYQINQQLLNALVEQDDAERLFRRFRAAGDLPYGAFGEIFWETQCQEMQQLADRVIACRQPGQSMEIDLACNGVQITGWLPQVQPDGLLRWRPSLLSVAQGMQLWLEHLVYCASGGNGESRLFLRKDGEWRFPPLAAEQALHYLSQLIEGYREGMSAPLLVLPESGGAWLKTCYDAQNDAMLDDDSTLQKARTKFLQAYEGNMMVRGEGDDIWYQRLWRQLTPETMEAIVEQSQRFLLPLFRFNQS
T1 sequence (P04993 whole entry, chain 3 of 3): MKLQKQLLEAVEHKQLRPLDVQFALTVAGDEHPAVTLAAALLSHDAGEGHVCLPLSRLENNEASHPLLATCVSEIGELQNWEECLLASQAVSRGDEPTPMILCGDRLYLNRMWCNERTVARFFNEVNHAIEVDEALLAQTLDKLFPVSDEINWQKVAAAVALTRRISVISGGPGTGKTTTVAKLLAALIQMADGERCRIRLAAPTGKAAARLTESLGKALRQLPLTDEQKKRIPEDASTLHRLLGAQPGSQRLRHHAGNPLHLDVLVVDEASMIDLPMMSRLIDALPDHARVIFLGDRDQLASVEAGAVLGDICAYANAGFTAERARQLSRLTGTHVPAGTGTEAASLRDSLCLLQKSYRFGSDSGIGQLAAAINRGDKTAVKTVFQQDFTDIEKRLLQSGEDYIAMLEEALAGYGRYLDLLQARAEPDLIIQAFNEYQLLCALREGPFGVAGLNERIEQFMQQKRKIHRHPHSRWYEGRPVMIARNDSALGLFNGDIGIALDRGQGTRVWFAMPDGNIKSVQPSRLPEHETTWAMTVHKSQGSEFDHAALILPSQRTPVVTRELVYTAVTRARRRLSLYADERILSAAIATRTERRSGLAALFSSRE

B1: hpDNA-F (structured_DNA)
DNA: GATGTGACTCGTTACCTGAGTTTTTACTCAGGTAACGAGTCACATC
binding result (RecBCD [1]): binds

B2: ssDNA-F (ssDNA)
DNA: AGAGAGAGAGAGAGAGAGAGAGAG
binding result (RecBCD [2]): binds

B3: 3ohDNA-F (structured_DNA)
DNA: CATGTGACTCGTTACCTGAGTTTTTACTCAGGTAACGAGTCACATGATATATATAT
Kd (RecBCD [3]): 166 ± 41 nM
